Changes are numbered by the printed parent chain. Numbers in names are those of the source.

B1: Anti-CD19-CD3 / CD58 trispecific antibody, DANAPA IgG1 Fc (Table 33) (other)
heavy: QVQLVQSGAEVKKPGASVKVSCKASGYTFTTYWIQWVRQAPGQRLEWMGAVYPGDADTRYTQKFQGRVTLTADRSASTAYMELSSLRSEDTAVYYCGRDAGLEYYALDYWGQGTLVTVSSASTKGPSVFPLAPSSKSTSGGTAALGCLVKDYFPEPVTVSWNSGALTSGVHTFPAVLQSSGLYSLSSVVTVPSSSLGTQTYICNVNHKPSNTKVDKRVEPKSCGGGGSGGGGSEVQLVESGGGLVQPGGSLKLSCAASGFTFNTYAMNWVRQASGKGLEWVGRIRSKYNNYATYYADSVKDRFTISRDDSKSTLYLQMNSLKTEDTAVYYCVRHGNFGNSYVSWFAYWGQGTLVTVSSGGGGSGGGGSGGGGSGGGGSQAVVTQEPSLTVSPGGTVTLTCRSSTGAVTTSNYANWVQQKPGQAPRGLIGGTNKRAPWTPARFSGSLLGDKAALTLSGAQPEDEAEYFCALWYSNLWVFGGGTKLTVLGGGGSDKTHTCPPCPAPELLGGPSVFLFPPKPKDTLMISRTPEVTCVVVAVSHEDPEVKFNWYVDGVEVHNAKTKPREEQYASTYRVVSVLTVLHQDWLNGKEYKCKVSNKALAAPIEKTISKAKGQPREPQVCTLPPSREEMTKNQVSLSCAVKGFYPSDIAVEWESNGQPENNYKTTPPVLDSDGSFFLVSKLTVDKSRWQQGNVFSCSVMHEALHNHYTQKSLSLSPGK
chain: SQQIYGVVYGNVTFHVPSNVPLKEVLWKKQKDKVAELENSEFRAFSSFKNRVYLDTVSGSLTIYNLTSSDEDEYEMESPNITDTMKFFLYVLESGGGGSDKTHTCPPCPAPELLGGPSVFLFPPKPKDTLMISRTPEVTCVVVAVSHEDPEVKFNWYVDGVEVHNAKTKPREEQYASTYRVVSVLTVLHQDWLNGKEYKCKVSNKALAAPIEKTISKAKGQPREPQVYTLPPCREEMTKNQVSLWCLVKGFYPSDIAVEWESNGQPENNYKTTPPVLDSDGSFFLYSKLTVDKSRWQQGNVFSCSVMHEALHNHYTQKSLSLSPGK
light: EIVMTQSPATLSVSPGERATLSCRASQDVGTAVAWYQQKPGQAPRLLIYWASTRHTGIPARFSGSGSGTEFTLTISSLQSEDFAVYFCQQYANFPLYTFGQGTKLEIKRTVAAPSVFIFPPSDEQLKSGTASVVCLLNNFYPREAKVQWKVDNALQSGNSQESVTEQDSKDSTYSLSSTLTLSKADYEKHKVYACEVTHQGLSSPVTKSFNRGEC
B2: Anti-CD19-CD3 / CD58 trispecific antibody, LALASKPA IgG1 Fc (Table 33) (other)
heavy: B1 heavy with L506A, L507A, A537D, S539K, A569N
chain: B1 chain with L113A, L114A, A144D, S146K, A176N
light: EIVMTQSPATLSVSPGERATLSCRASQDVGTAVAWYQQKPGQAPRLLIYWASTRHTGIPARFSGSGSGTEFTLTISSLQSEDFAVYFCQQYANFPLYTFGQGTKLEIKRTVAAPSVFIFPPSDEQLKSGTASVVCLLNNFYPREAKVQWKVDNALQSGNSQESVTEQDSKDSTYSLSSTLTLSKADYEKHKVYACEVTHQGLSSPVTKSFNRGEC
B3: Anti-CD19-CD3 / CD58 trispecific antibody, GADAPASK IgG1 Fc (Table 33) (other)
heavy: B1 heavy with G509A, S539K, A569N
chain: B1 chain with G116A, S146K, A176N
light: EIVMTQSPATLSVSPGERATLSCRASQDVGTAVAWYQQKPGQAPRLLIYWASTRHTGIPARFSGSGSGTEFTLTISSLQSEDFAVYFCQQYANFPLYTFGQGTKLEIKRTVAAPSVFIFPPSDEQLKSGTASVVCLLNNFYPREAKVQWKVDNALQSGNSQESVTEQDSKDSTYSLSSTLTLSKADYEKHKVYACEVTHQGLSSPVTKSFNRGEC
B4: Anti-CD3 human IgG1 antibody, wild type Fc (antibody)
heavy: not shown
light: QAVVTQEPSLTVSPGGTVTLTCRSSTGAVTTSNYANWVQQKPGQAPRGLIGGTNKRAPWTPARFSGSLLGDKAALTLSGAQPEDEAEYFCALWYSNLWVFGGGTKLTVLGQPKAAPSVTLFPPSSEELQANKATLVCLISDFYPGAVTVAWKADSSPVKAGVETTTPSKQSNNKYAASSYLSLTPEQWKSHRSYSCQVTHEGSTVEKTVAPTECS
notes: also called WT; WT IgG1
B5: Anti-CD3 human IgG1 antibody, DAPA Fc variant (D265A/P329A) (antibody)
heavy: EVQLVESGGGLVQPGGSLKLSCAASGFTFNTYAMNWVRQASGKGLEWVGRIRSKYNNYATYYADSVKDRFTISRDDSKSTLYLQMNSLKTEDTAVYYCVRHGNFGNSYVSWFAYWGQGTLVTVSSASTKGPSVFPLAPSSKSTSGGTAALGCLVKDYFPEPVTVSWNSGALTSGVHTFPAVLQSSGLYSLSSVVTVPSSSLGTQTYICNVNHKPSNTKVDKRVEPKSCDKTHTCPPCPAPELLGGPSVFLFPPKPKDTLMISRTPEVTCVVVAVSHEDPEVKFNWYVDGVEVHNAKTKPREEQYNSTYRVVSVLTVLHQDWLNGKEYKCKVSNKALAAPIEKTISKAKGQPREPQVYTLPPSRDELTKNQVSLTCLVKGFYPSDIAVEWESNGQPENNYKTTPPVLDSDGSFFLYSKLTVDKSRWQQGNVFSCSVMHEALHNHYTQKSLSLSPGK
light: B4 light
notes: also called DAPA-IgG1; FCV-8
B6: Anti-CD3 human IgG1 antibody, R214K allotype (antibody)
heavy: not shown
light: B4 light
notes: also called WT allotype; WT allotype R214K
B7: Anti-CD3 human IgG1 antibody, LALAPA Fc variant (L234A/L235A/P329A) (antibody)
heavy: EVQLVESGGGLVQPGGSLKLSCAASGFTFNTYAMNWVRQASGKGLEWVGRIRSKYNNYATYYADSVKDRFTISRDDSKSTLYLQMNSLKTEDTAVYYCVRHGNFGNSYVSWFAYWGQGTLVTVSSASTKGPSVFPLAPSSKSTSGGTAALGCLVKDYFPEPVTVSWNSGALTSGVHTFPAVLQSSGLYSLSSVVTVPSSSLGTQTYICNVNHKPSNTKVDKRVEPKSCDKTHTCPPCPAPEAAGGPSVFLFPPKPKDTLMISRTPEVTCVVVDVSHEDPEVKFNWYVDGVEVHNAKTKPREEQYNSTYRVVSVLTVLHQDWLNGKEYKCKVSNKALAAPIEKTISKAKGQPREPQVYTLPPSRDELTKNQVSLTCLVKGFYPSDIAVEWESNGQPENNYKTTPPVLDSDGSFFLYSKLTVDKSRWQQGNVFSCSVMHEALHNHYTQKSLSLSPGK
light: B4 light
notes: also called LALAPA-IgG1; FCV-1
B8: Anti-CD3 human IgG1 antibody, GADAPASK Fc variant (G237A/D265A/P329A/S267K) (antibody)
heavy: EVQLVESGGGLVQPGGSLKLSCAASGFTFNTYAMNWVRQASGKGLEWVGRIRSKYNNYATYYADSVKDRFTISRDDSKSTLYLQMNSLKTEDTAVYYCVRHGNFGNSYVSWFAYWGQGTLVTVSSASTKGPSVFPLAPSSKSTSGGTAALGCLVKDYFPEPVTVSWNSGALTSGVHTFPAVLQSSGLYSLSSVVTVPSSSLGTQTYICNVNHKPSNTKVDKRVEPKSCDKTHTCPPCPAPELLGAPSVFLFPPKPKDTLMISRTPEVTCVVVAVKHEDPEVKFNWYVDGVEVHNAKTKPREEQYNSTYRVVSVLTVLHQDWLNGKEYKCKVSNKALAAPIEKTISKAKGQPREPQVYTLPPSRDELTKNQVSLTCLVKGFYPSDIAVEWESNGQPENNYKTTPPVLDSDGSFFLYSKLTVDKSRWQQGNVFSCSVMHEALHNHYTQKSLSLSPGK
light: B4 light
notes: also called FCV-7
B9: Anti-CD3 human IgG1 antibody, DANAPA Fc variant (D265A/N297A/P329A) (antibody)
heavy: B8 heavy with A245G, K275S, N305A
light: B4 light
notes: Variant made by PCR mutagenesis of the anti-CD3 WT IgG1 heavy chain; also called DANAPA-IgG1; FCV-9
B10: Anti-CD3 human IgG1 antibody, DAPASK Fc variant (D265A/P329A/S267K) (antibody)
heavy: B8 heavy with A245G
light: B4 light
notes: also called DAPASK-IgG1; FCV-5
B11: Anti-CD3 human IgG1 antibody, LALAGA Fc variant (L234A/L235A/G237A) (antibody)
heavy: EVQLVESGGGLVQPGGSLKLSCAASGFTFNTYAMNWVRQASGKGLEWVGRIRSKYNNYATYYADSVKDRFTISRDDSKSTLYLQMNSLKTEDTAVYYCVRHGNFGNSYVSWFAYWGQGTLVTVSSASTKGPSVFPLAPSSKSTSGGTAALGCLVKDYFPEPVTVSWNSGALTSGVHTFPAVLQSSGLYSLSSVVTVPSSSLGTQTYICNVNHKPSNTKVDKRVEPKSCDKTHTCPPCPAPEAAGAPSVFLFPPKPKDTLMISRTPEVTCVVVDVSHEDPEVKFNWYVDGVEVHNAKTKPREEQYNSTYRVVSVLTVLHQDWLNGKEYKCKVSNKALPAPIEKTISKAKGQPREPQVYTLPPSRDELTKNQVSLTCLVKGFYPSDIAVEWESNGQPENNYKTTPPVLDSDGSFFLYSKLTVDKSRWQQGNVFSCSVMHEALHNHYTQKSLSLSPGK
light: B4 light
notes: also called LALAGA-IgG1; FCV-2
B12: Anti-CD3 human IgG1 antibody, LALASKPA Fc variant (L234A/L235A/S267K/P329A) (antibody)
heavy: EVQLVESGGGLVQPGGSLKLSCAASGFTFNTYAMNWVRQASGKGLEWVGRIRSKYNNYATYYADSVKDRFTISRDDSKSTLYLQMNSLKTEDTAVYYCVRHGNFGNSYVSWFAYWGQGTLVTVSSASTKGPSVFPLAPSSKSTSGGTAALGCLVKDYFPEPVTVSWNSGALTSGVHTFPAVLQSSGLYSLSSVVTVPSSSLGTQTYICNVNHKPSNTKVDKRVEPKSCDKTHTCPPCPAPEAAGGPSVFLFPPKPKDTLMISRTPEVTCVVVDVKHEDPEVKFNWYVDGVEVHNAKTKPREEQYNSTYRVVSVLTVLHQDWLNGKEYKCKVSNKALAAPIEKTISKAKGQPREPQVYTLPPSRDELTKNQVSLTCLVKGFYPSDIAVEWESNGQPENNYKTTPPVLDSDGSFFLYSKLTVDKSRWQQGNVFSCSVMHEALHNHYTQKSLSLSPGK
light: B4 light
notes: also called FCV-4
B13: Anti-CD3 human IgG1 antibody, GADAPA Fc variant (G237A/D265A/P329A) (antibody)
heavy: B8 heavy with K275S
light: B4 light
notes: also called GADAPA-IgG1; FCV-6
B14: Anti-CD3 human IgG1 antibody, LALAPG Fc variant (L234A/L235A/P329G) (antibody)
heavy: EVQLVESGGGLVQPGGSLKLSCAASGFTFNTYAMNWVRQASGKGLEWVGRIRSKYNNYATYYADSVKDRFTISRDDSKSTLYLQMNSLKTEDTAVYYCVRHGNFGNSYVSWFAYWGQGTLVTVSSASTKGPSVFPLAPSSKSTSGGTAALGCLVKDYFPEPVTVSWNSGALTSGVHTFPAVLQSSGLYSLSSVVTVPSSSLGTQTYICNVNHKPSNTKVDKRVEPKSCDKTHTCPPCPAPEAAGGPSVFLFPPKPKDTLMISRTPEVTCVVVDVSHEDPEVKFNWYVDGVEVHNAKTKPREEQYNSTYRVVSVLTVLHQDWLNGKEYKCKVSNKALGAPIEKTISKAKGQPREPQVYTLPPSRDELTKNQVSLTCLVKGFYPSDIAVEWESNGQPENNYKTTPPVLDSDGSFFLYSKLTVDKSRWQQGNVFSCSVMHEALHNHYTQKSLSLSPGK
light: B4 light
notes: also called LALAPG-IgG1; FCV-3

T3 sequence (P02745 23-245 limits assumed, chain 1 of 3): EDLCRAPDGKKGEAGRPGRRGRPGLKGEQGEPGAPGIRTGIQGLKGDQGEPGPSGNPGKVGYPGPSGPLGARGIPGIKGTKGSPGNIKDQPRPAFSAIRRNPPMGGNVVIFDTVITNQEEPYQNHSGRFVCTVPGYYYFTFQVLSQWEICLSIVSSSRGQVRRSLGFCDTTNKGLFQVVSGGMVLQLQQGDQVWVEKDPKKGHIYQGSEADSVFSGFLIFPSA
T3 sequence (P02746 28-253 limits assumed, chain 2 of 3): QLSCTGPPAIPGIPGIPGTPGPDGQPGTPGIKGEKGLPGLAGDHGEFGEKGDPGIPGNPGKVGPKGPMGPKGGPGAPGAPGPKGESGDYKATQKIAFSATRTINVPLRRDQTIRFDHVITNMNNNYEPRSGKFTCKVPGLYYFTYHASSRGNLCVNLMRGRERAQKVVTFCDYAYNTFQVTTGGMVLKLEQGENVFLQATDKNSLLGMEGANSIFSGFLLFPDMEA
T3 sequence (P02747 29-245 limits assumed, chain 3 of 3): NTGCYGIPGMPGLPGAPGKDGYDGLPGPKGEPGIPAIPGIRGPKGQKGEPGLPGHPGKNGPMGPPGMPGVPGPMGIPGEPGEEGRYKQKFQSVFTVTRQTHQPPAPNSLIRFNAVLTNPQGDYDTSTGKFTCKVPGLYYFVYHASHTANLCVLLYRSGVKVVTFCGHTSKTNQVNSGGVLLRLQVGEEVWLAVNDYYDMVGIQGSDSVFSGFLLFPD

The target of one assay is T1, human Fc gamma receptor 1A (human, UniProt P12314 16-288, limits assumed).
T1 construct: also called hFcgammaRIA; hFcγRIA
T1 sequence (P12314 16-288 limits assumed): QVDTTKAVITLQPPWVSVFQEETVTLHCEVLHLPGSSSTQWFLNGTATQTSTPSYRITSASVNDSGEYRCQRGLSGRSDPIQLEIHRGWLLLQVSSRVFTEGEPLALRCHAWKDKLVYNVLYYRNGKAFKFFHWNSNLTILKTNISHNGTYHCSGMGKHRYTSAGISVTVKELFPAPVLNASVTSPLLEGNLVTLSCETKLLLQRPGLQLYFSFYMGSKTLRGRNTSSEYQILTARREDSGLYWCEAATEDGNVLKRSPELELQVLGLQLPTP
In words: SPR (Biacore T200), antibody amine-coupled on CM5 chip, human FcγRIA as analyte; maximum response (RU). Here is the method: Surface plasmon resonance was conducted using a Biacore T200 to assess binding affinity of antibody WT and variants to human FcγR1A.
The antibodies were covalently immobilized on a CM5 sensor chip whereas Fc gamma receptor 1A served as analyte in solution (FIG. 38). Antibodies were diluted in 10 mM sodium acetate pH 4 and immobilized at a density of approximately 950 resonance units (RU) on the CM5 sensor chip applying a standard amine coupling procedure. Flow cell 1 was blank immobilized to serve as a reference. The kinetic binding data were collected by subsequent injections of 1:2 dilution series of the human Fc gamma receptor 1A on all flow cells at a flow rate of 30 μl/min and at a temperature of 25° C. […] The chip surface was regenerated using 20 mM glycine pH 2.0 solution after each measuring cycle. Zero concentration samples (blank runs) were measured to allow double-referencing during data evaluation.
Data were evaluated using the Biacore T200 evaluation software. The raw data were double referenced, i.e. the response of the measuring flow cell was corrected for the response of the reference flow cell, and in a second step the response of a blank injection was subtracted. Then the sensorgrams were fitted by applying a 1:1 kinetic binding model to calculate dissociation equilibrium constants. In addition, the maximum response reached during the experiment was monitored. Maximum response describes the binding capacity of the surface in terms of the response at saturation.
Turning to B1, the binding result is listed as “no binding (tested: 25 nM)”.

With B2, the binding result is recorded as “no binding (tested: 25 nM)”.

On to B3, for which the binding result is “no binding (tested: 25 nM)”.

The target of a further assay is T1, human Fc gamma receptor 1A. In words: SPR (Biacore T200), antibody amine-coupled on CM5 chip, receptor as analyte. Here is the method: (§1) Binding to human C1q was evaluated. All SPR buffers were prepared using deionized water. The samples were prepared in running buffer PBS pH 7.4 with 0.005% Tween-20. SPR measurements were measured on a Biacore T200 (GE-Healthcare Life Sciences) controlled by Biacore T200 control software version 2.0.1. Surface plasmon resonance was conducted using a Biacore T200 to assess binding affinity of antibody IgG1 WT and variants to human Fc receptors, including FcγR1A, and FcγR3A (V158) and human C1q.
(§2) The antibodies were covalently immobilized on a CM5 sensor chip whereas Fc gamma receptors or human C1q served as analytes in solution (FIG. 38). For Fc gamma receptors binding evaluation (method 1), antibodies were diluted in 10 mM sodium acetate pH 4 and immobilized at a density of approximately 950 resonance units (RU's) on the CM5 sensor chip applying a standard amine coupling procedure. Flow cell 1 was blank immobilized to serve as a reference. The kinetic binding data were collected by subsequent injections of 1:2 dilution series of the human Fc gamma receptors on all flow cells at a flow rate of 30 μl/min and at a temperature of 25° C. The Fc gamma receptors were diluted in the running buffer at concentrations ranging from 0.2 nM to 1000 nM (e.g. FcγR1A: 0.2 to 100 nM, FcγR3A V158: 1.95 to 1000 nM). The chip surface was regenerated using 20 mM glycine pH 2.0 solution after each measuring cycle. For human C1q binding evaluation (method 2), antibodies were diluted in 10 mM sodium acetate pH 4 and immobilized at a density of approximately 7000 resonance units (RU's) on the CM5 sensor chip applying a standard amine coupling procedure. Flow cell 1 was blank immobilized to serve as a reference. The kinetic binding data were collected by subsequent injections of 1:2 dilution series of the human C1q on all flow cells at a flow rate of 30 μl/min and at a temperature of 25° C. The human C1q was diluted in the running buffer at concentrations ranging from 0.49 nM to 250 nM. The chip surface was regenerated using 50 mM NaOH solution after each measuring cycle. Zero concentration samples (blank runs) were measured for both methods to allow double-referencing during data evaluation.
(§3) Data were evaluated using the Biacore T200 evaluation software.
For the molecule B4, the “Maximum response at 100 nM hFcgammaRIA (RU)” value was 193 RU.

With B5, the “Maximum response at 100 nM hFcgammaRIA (RU)” value is 63 RU.

On to B6, for which the “Maximum response at 100 nM hFcgammaRIA (RU)” value came out at 193 RU.

Turning to B7, the “Maximum response at 100 nM hFcgammaRIA (RU)” value turned out to be 26 RU.

In another assay the target is T2, human Fc gamma receptor 3A, V158 variant (human, UniProt P08637 17-208).
T2 construct: also called hFcgammaRIIIA V158; FcγR3A (V158)
T2 sequence (P08637 other isoform, or with tags, fused parts or gaps mutant): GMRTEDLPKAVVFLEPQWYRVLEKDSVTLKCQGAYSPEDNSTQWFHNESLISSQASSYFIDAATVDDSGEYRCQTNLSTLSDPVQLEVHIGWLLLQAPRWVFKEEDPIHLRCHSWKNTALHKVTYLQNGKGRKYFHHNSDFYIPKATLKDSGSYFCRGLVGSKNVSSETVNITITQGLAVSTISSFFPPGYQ
Described as above. Here is the method: as §1, §2, §3
Turning to B4, the “Maximum response at 1000 nM hFcgammaRIIIA V158 (RU)” value worked out at 79 RU.

B5: the “Maximum response at 1000 nM hFcgammaRIIIA V158 (RU)” value came out at 15 RU.

B8: the “Maximum response at 1000 nM hFcgammaRIIIA V158 (RU)” value was 12 RU.

On to B9, for which the “Maximum response at 1000 nM hFcgammaRIIIA V158 (RU)” value stood at 31 RU.

For B10, the “Maximum response at 1000 nM hFcgammaRIIIA V158 (RU)” value was found to be 15 RU.

With B11, the “Maximum response at 1000 nM hFcgammaRIIIA V158 (RU)” value was found to be 25 RU.

As to B6, the “Maximum response at 1000 nM hFcgammaRIIIA V158 (RU)” value is 72 RU.

Consider B12, for which the “Maximum response at 1000 nM hFcgammaRIIIA V158 (RU)” value worked out at 20 RU.

On to B13, for which the “Maximum response at 1000 nM hFcgammaRIIIA V158 (RU)” value came to 9 RU.

Turning to B14, the “Maximum response at 1000 nM hFcgammaRIIIA V158 (RU)” value stood at 33 RU.

For B7, the “Maximum response at 1000 nM hFcgammaRIIIA V158 (RU)” value was determined as 19 RU.

A further assay addresses T3, human C1q (human, UniProt P02745 23-245; P02746 28-253; P02747 29-245).
T3 construct: also called hC1q
In words: SPR (Biacore T200), antibody amine-coupled on CM5 chip, C1q as analyte. Here is the method:
as §1, §2, §3
For B4, the “Maximum response at 250 nM hC1q (RU)” value worked out at 680 RU.

B5: the “Maximum response at 250 nM hC1q (RU)” value is 85 RU.

As to B8, the “Maximum response at 250 nM hC1q (RU)” value turned out to be 168 RU.

Turning to B9, the “Maximum response at 250 nM hC1q (RU)” value came to 29 RU.

As for B10, the “Maximum response at 250 nM hC1q (RU)” value stood at 86 RU.

In the case of B11, the “Maximum response at 250 nM hC1q (RU)” value is 335 RU.

Consider B6, for which the “Maximum response at 250 nM hC1q (RU)” value amounted to 640 RU.

In the case of B12, the “Maximum response at 250 nM hC1q (RU)” value was determined as 95 RU.

B13: the “Maximum response at 250 nM hC1q (RU)” value worked out at 203 RU.

Turning to B14, the “Maximum response at 250 nM hC1q (RU)” value was 245 RU.

For the molecule B7, the “Maximum response at 250 nM hC1q (RU)” value was 270 RU.

The values are drawn from patent publication US20240025993A1 (Novartis, published 2024).
